The record followed here is patent US20150203583A1.

The target of this experiment is Fc receptor on monocytes of human PBMC effector cells (human). As to the kind of experiment: cell-based or functional assay.

For “DAC HYP (daclizumab, humanized IgG1 anti-CD25 monoclonal antibody made by the high yield process in NS0 cells)”, the maximal ADCC activity on KIT225/K6 cells, against ZENAPAX DAC and DAC Penzberg is 30 to 40 % lower.
